Measurements as given in patent US11116816B2, “Therapeutic vitamin d conjugates” (Extend Biosciences, Inc., priority 2014, dated 2021).
Where two headings read alike, the source gives them in different places. Primed or numbered codes have the meaning given here. No end group written: not given here.

B1: FGF21 in its natural state: Fibroblast Growth Factor 21, protein that circulates in serum, natural state (protein, UniProt Q9NSA1 29-209, looked up)
Fibroblast growth factor 21: HPIPDSSPLLQFGGQVRQRYLYTDDAQQTEAHLEIREDGTVGGAADQSPESLLQLKALKPGVIQILGVKTSRFLCQRPDGALYGSLHFDPEACSFRELLLEDGYNVYQSEAHGLPLHLPGNKSPHRDPAPRGPARFLPLPGLPPALPEPPGILAPQPPDVGSSDPLSMVGPSQGRSPSYAS
B2: FGF21: Modified FGF21 expressed in E. coli, I3C substitution and His6 tag, SEQ ID NO:22, not conjugated (protein)
chain: MHHHHHHHPCPDSSPLLQFGGQVRQRYLYTDDAQQTEAHLEIREDGTVGGAADQSPESLLQLKALKPGVIQILGVKTSRFLCQRPDGALYGSLHFDPEACSFRELLLEDGYNVYQSEAHGLPLHLPGNKSPHRDPAPRGPARFLPLPGLPPALPEPPGILAPQPPDVGSSDPLSMVGPSQGRSPSYAS
modifications: His6 tag
B3: VitD-(25)-PEG2K-FGF21: Modified FGF21 (SEQ ID NO:22) conjugated via free cysteine to VitD-(25)-PEG2K-maleimide (conjugate)
chain: B2 chain
modifications: VitD-PEG2K-maleimide conjugated at free cysteine
B4: VitD-(3)-PEG2K-FGF21: Modified FGF21 (SEQ ID NO:22) conjugated via free cysteine to VitD-(3)-PEG2K-maleimide (conjugate)
chain: B2 chain
modifications: VitD-PEG2K-maleimide conjugated at free cysteine

Experiments:
[1] = Pharmacokinetics of apelin and apelin conjugates, intravenous; type: in vivo, Sprague-Dawley rats; conditions: for pharmacokinetic properties compared to unmodified apelin: ELISA (FIG. 5); for bioavailability improvement: AUC versus native apelin-13, 0.1 mg/kg intravenous
Experimental: FIG. 5: Pharmacokinetics of apelin and apelin conjugates. Apelin alone or conjugated to the Vitamin D-(25)-PEG2k-maleimide carrier, or the Vitamin D-(3)-PEG2k-aldehyde carrier were injected intravenously into Sprague-Dawley rats at 0.1 mg/kg. Plasma samples were analyzed for apelin concentration by ELISA in duplicate and the average value from three animals were plotted on the semi-log graph.
Plasma samples were taken at 5 min, and 0.5, 1, 2, 4, 8 and 24 hr and analyzed for the presence of apelin by quantitative ELISA (Phoenix Pharmaceuticals, Burlingame, Calif., Cat. No. EK-057-23). […] Unmodified apelin decayed to near-background levels within 5 minutes of injection.
The decay rates of the carrier-conjugates are complex and probably represent a combination of slower renal clearance and protection from protease degradation. A pharmacokinetic analysis of the data was then performed using WinNonLin (PharSight) and GraphPad (Prism).

[2] = in vivo; cited from earlier work
[3] = Bertrand et al. 2015; cited from earlier work
[4] = natural state; WO03/011213, Kharitonenkov et al. 2005; cited from earlier work
[5] = target: T1, human FGF21 receptor (FGFR1), recruitment of co-receptor β-Klotho (Homo sapiens, UniProt P11362+Q86Z14); experiment: PathHunter U2OS FGFR1-β-Klotho Functional Assay; type: cell-based; conditions: PathHunter U2OS cells expressing FGFR1, β-Klotho recruitment, chemiluminescence
T1 construct: host or cells: U2OS (PathHunter)
Description: In some embodiments, the activity of the FG21, when conjugated to a carrier, was substantially the same as unmodified protein. […] PathHunter® cells stably express human FGF21 receptor (FGFR1). They were monitored for recruitment of the co-receptor, β-Klotho, following exposure to the test compounds using the PathHunter® Detection reagent cocktail on a PerkinElmer Envision instrument with chemiluminescent signal detection. […] Thus, the FGF21 conjugates retained about the same receptor activity as the unmodified FGF21 protein or better.

[6] = Pharmacokinetics of FGF21 conjugates, subcutaneous; type: in vivo, Sprague Dawley rats; conditions: 0.1 mg/kg sc; for Cmax: plasma, human FGF21 ELISA
Experimental: The pharmacokinetics of FGF21 conjugates in Sprague Dawley rats were determined. Unmodified FGF21, VitD-(25)-PEG2K-FGF21 and VitD-(3)-PEG2K-FGF21 were compared. […] The samples were analyzed using commercial ELISA kits for human FGF21 (Millipore Cat. No. EZHFGF21-19K). […] Improvements in the mean residence time (MRT) and terminal rate constant (Lz) values were also observed.

[7] = 0.1 mg/kg intravenous, plasma, ELISA

T1 sequence (P11362 22-822): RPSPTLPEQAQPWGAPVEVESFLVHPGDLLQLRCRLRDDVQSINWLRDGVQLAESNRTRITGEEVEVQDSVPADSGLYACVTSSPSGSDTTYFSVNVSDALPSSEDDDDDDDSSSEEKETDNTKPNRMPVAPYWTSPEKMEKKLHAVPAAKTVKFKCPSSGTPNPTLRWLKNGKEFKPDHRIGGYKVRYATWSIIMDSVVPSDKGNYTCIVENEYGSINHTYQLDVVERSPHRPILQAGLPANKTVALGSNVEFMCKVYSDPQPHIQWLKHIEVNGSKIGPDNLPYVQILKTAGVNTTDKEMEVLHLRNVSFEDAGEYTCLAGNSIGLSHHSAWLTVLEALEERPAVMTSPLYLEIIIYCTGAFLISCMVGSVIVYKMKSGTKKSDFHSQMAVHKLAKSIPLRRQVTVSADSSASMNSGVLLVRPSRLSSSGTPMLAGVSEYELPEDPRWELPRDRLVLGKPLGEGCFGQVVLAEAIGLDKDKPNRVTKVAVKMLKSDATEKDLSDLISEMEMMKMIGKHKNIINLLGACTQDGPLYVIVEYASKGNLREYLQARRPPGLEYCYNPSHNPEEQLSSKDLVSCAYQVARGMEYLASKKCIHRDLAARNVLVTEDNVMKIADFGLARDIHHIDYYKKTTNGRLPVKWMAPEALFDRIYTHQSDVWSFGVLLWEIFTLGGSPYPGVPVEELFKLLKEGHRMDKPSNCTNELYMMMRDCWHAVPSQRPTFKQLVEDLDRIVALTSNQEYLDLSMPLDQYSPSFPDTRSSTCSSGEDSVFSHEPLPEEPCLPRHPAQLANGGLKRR
T1 sequence (Q86Z14 52-1044 limits assumed): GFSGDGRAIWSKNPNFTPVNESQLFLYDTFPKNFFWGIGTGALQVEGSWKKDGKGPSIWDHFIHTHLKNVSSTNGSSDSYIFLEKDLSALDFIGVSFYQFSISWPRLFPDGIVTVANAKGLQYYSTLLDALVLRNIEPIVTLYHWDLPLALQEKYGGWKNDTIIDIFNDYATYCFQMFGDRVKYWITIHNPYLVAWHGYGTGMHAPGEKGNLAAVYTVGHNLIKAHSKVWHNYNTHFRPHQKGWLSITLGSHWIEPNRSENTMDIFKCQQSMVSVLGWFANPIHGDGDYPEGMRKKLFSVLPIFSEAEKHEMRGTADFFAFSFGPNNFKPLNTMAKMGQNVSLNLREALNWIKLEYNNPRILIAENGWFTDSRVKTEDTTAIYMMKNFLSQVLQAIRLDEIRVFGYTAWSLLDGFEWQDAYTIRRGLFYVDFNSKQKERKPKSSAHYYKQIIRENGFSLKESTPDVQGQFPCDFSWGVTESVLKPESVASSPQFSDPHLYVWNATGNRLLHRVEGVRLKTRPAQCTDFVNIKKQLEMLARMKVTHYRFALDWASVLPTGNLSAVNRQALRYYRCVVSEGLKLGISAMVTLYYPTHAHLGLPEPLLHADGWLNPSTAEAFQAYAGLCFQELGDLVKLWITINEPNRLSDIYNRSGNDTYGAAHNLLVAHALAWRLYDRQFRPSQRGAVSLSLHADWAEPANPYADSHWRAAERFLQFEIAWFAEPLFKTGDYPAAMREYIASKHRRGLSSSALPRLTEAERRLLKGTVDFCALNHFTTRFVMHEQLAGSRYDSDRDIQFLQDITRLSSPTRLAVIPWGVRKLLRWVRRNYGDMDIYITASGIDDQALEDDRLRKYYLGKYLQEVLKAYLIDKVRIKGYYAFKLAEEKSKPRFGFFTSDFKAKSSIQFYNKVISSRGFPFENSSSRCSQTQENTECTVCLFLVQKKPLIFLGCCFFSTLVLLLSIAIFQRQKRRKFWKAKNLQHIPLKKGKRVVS

Molecule	EC50 [5] [µg/mL]	AUCtot [6]	Lz (terminal rate constant) [6]	MRT [6] [h]	Tmax [6] [h]	t½ [6] [h]	Cmax [6] [ng/mL]	other results
VitD-(25)-PEG2K-C-apelin: C-apelin (SEQ ID NO:16, N-terminal cysteine) conjugated to VitD-(25)-PEG2K-maleimide carrier (CQRPRLSHKGPMPF; VitD-(25)-PEG2K-maleimide carrier conjugate)	–	–	–	–	–	–	–	AUC [1, 7]: 85 ng·h/mL; pharmacokinetic properties compared to unmodified apelin ([1]; 0.1 mg/kg intravenous, plasma): improved pharmacokinetic properties; bioavailability improvement [1]: 213 fold
PTH: Parathyroid hormone, polypeptide containing 84 amino acids secreted by the parathyroid glands	–	–	–	–	–	–	–	half-life [2]: approximately 4 minutes
CSCC[C@H](NC(=O)[C@@H]1CCCN1C(=O)CNC(=O)[C@H](CCCCN)NC(=O)[C@H](Cc1cnc[nH]1)NC(=O)[C@H](CO)NC(=O)[C@H](CC(C)C)NC(=O)[C@H](CCCNC(=N)N)NC(=O)[C@@H]1CCCN1C(=O)[C@H](CCCNC(=N)N)NC(=O)[C@@H](N)CCC(N)=O)C(=O)N1CCC[C@H]1C(=O)N[C@@H](Cc1ccccc1)C(=O)O [apelin-13, reference compound]	–	–	–	–	–	–	–	time to decay to near-background levels after injection [1, 7]: ≤ 5 min; AUC ([1]; Sprague-Dawley, rat, 0.1 mg/kg intravenous, plasma, ELISA, read-out: AUC): 0.4 ng·h/mL; in vivo half-life [3]: ≤ 0.333 h
VitD-(3)-PEG2K-apelin: Apelin-13 conjugated at N-terminal amine to Vitamin D-(3)-PEG2K-aldehyde carrier ({VitD‑(3)-PEG2K}-QRPRLSHKGPMPF)	–	–	–	–	–	–	–	AUC [1, 7]: 328 ng·h/mL; pharmacokinetic properties compared to unmodified apelin ([1]; 0.1 mg/kg intravenous, plasma): significantly improved pharmacokinetic properties; bioavailability improvement [1]: 820 fold
B1	–	–	–	–	–	–	–	half-life in serum [4]: about 1.1 hours
B2	0.16	228 h(ng/ml)	.534 h⁻¹	2.8	2	1.3	59	–
B3	0.13	1640 h(ng/ml)	.131 h⁻¹	7.9	2	5.3	115	half-life (t1/2) [6]: 5.3 h; half-life improvement compared to unmodified FGF21 [6]: 4.1 fold; improvement in AUC values versus unmodified FGF21 [6]: 7.2 fold
B4	0.40	2727 h(ng/ml)	.0604 h⁻¹	18.9	4	11.5	118	half-life (t1/2) [6]: 11.5 h; half-life improvement compared to unmodified FGF21 [6]: 8.8 fold; improvement in AUC values versus unmodified FGF21 [6]: 12.0 fold
